Reference: the Human Domainome abundance scans (Beltran et al. 2025)

B1: Calcium-binding protein 2, residues 155 to 219; numbered along this chain, Q9NPB3 (parent)
chain: RELRDAFREFDTNGDGRISVGELRAALKALLGERLSQREVDEILQDVDLNGDGLVDFEEFVRMMS

Variants of: B1
Test: abundance fitness (aPCA) (normalised: wild type 0, dead -1); higher = more abundant; growth selection in yeast, the domain comes from the species named
Conditions: Homo sapiens

Abundance fitness, by site and new letter:
E33: F -0.109 | P -0.007 | L -0.195 | S -0.045 | D 0.074 | Q -0.009 | T -0.032 | I -0.074 | C 0.006 | M -0.049 | Y -0.119 | A 0.002 | K 0.037
E42: K -0.178 | S -0.136 | L -0.175 | V -0.108 | W -0.183 | P -0.301 | M -0.143 | I -0.204 | R -0.08 | Q -0.272 | D -0.166 | A -0.183 | G -0.081 | Y -0.309 | C -0.074
G51: R -0.085 | A 0.062 | F -0.269 | T 0.006 | N 0.098 | L 0.06 | V 0.003 | W -0.301 | D 0.057 | P 0.151 | E 0.181 | Y -0.107 | K 0.014 | M 0.047 | H -0.071
L30: P -0.158 | N 0.151 | E -0.091 | T -0.008 | W -0.245 | I -0.134 | S -0.216 | M -0.595 | D -0.101 | V -0.053 | F -0.17 | R 0.069 | Q 0.015 | A -0.255 | C 0.057 | K 0.134
L31: A 0.127 | G 0.076 | K 0.134 | M 0.169 | R -0.043 | W -0.26 | Q 0.086 | F 0.047 | P 0.028 | V -0.048 | D -0.164 | Y -0.064 | E 0.069 | H -0.021 | T 0.074 | I -0.061
D52: A 0.009 | E 0.043 | C -0.124 | F -0.414 | H -0.049
L44: P -0.323 | R -0.178 | V 0 | H 0.097 | I 0.072 | A 0.116 | E -0.123 | M -0.219 | T 0 | K 0.055 | G -0.01 | D -0.064 | W -0.496
I43: W -0.142 | P -0.032 | F -0.282 | K 0.053 | S 0.08 | H 0.161 | M -0.017 | N 0.053 | Y -0.345 | R 0.03 | A 0.254 | T 0.092 | Q 0.099 | G 0.123 | V 0.01 | E 0.038 | C -0.009
N50: E -0.19 | K 0.028 | V -0.254 | F -0.346 | S -0.092 | A -0.056 | M -0.833 | D 0.186 | Y -0.419 | Q -0.014 | W -0.627 | C 0.032 | I -0.488 | L -0.232 | T -0.022 | P -0.2
R34: Q 0.088 | W -0.558 | S -0.019 | K 0.187 | L -0.177 | F -0.298 | E 0.14 | A 0.045 | V -0.129 | P 0.01 | N 0.043 | C 0.056 | M -0.207 | T 0.018 | G 0.032
D48: L -0.015 | K 0.152 | I 0.105 | M 0.05 | N 0.122 | A 0.068 | E 0.131 | W -0.103 | T 0.057 | F -0.434 | Q 0.127 | S 0.109 | V 0.092 | Y 0.042 | R 0.185 | G -0.529 | P -0.231 | H 0.108
D46: S -0.123 | R -0.493 | T 0.042 | F -0.321 | W -0.446 | V -0.343 | K -0.148 | Y -0.475
